For one substance, Kd, koff and kon results are on record in patent CN117088968A.

The experiment concerns the target 2019-nCoV N蛋白抗原 (2019-nCoV (新型冠状病毒)) (UniProt P0DTC9). The experiment can be described thus: AMC sensor, antibody captured at 10 μg/mL, N protein antigen in serial dilution in PBST.

对照 (antibody) came in with a Kd of 24.3 nM, a koff of 0.00011 s⁻¹ and an on-rate constant (kon) of 4520 M⁻¹ s⁻¹.
